Results on 13 molecules are retold here after patent US20240002497A1 (Merck Sharp & Dohme, published 2024).

The target of one test is T1, Navβ3 (human, UniProt Q9NY72 23-215, limits assumed).
T1 construct: also called beta3 subunit
The experiment in a line: binding ELISA.

For another test, the target named is T2, huNav1.7α (human, UniProt Q15858 1-1988).
T2 construct: HEK cells expressing the α subunit alone; also called HEKa; HEK huNav1.7α
The experiment in a line: further characterization (binding ELISA and FACS).

Test [1] concerns the target T3, huNav1.7α (human Nav1.7 alpha subunit, expressed without β subunits) (human, UniProt Q15858 1-1988).
T3 construct: also called HEK293 human Nav1.7α; HEKa Nav1.7α
The test can be described thus: binding FACS, HEKa cells.

A further test deals with T4, huNav157 chimera 14 (human).
T4 construct: Chimera without β subunits; also called Nav157ch14
The test can be described thus: binding FACS, HEK FlpIn cells.

Test [2] has as its target T5, huNav1.7α + β1-β2-β3 (human Nav1.7α co-expressed with Navβ1, Navβ2 and Navβ3) (human).
T5 construct: also called huNav1.7-beta1-beta2-beta3
The test can be described thus: binding FACS, HEK FlpIn cells.

Test [3] has as its target T6, huNav157 chimera 14 + β1-β2-β3 (human).
T6 construct: Chimera of huNav1.7α (extracellular loops and transmembrane helices) and huNav1.5α (intracellular loops); also called Nav157ch14-β1-β2-β3; huNav157 chimera 14-beta1-beta2-beta3
The test can be described thus: binding FACS, HEK FlpIn cells.

In test [4] the target is T7, huNav1.7α + β1 (human Nav1.7α co-expressed with Navβ1) (human, UniProt Q15858 1-1988; Q07699 19-218).
T7 construct: also called HEK293 human Nav1.7α + β1; HEKa/β1 Nav1.7α
The test can be described thus: binding FACS, HEKa/β1 cells.

Test [5] concerns the target T8, huNav1.7α + β1-β2-β3 (human, UniProt Q15858 1-1988; A5A6L6 19-218; O60939 30-215; Q2KI11 23-215).
T8 construct: also called huNav1.7-beta1-beta2-beta3; huNav1.7-β1-β2-β3
The test can be described thus: binding FACS, CHO Flp-In, periplasmic extract.

For test [6], the target named is T9, rhNav1.7α + β1-β2-β3 (rhesus monkey).
T9 construct: also called rhNav1.7-beta1-beta2-beta3; rhNav1.7-β1-β2-β3
The test can be described thus: FACS, CHO Flp-In, competitor 1 µM F010300703.

The target in another test is T10, huNav157chim14-β1-β2-β3 (human).
T10 construct: Whole entry; HEK Flp-In cells; also called huNav157 chimera 14-beta1-beta2-beta3
The experiment in a line: binding FACS, HEK Flp-In.

The next test deals with T11, huNav157chim14 (human).
T11 construct: HEK Flp-In cells; also called huNav157 chimera 14
The test can be described thus: binding FACS, HEK Flp-In.

Test [7] deals with T9, rhNav1.7α + β1-β2-β3. The experiment in a line: FACS, CHO Flp-In, competitor 1 µM IRR00092.
The target in test [8] is T8, huNav1.7α + β1-β2-β3. The experiment in a line: FACS, CHO Flp-In, competitor 1 µM IRR00092.
Test [9] deals with T12, muNav1.7α (murine Nav1.7α) (murine, UniProt Q62205 1-1984).
T12 construct: HEK Jmp-In cells
The test can be described thus: binding FACS; minus = lower activity than reference.

B1: F0103505D08 (VHH)
VHH: EVQLVESGGGLVQAGGSLRLSCVTSGRTSDLSTMNWFRQAPGKEREFVARITRRGSTYYAESVKERFIISRDNAKNTVYLQMNSLKPEDTANYYCTAASEMGYHYRGQGTLVTVSS
notes: Purified monovalent protein; also called F0103505D8
For B1, the binding result in the test with Navβ3 and with huNav1.7α was “no binding” in each case.

B2: F010301850 (VHH)
VHH: EVQLVESGGGVVQPGGSLRLSCAASGRILRIGYMRWYRQAPGKQREFVARITDDSATGYADSVKGRFTISRDNAKNTVYLQMNSLRPEDTALYYCEALVTASVRGGSIHSGTYWGQGTLVTVSS
notes: also called F0103387G05(L11V, A14P, D23A, H37Y, G40A, A41P, D58G, N82bS, N83R, V89L, R105Q)
B2 came in with a Bmax in test [1] of 100%. The EC50 in test [1] turned out to be 2.8 nM; with huNav157 chimera 14 it was 5.4 nM; in test [2] it was 1.9 nM; in test [3], 3 nM; in test [4] it was 1.8 nM.

B3: F0103PMP478E09 (bispecific antibody)
chain: EVQLVESGGGLVQPGGSLRLSCAASGSIFNINSMAWYRRAPGKQRELVASSTNGGSTNYADSVKGRFTISRDNAKRVYLQMNSLTPEDTAVYYCRALLQPSIYDISRTYWGQGTLVTVSSGGGGSGGGGSGGGGSGGGGSGGGGSGGGGSGGGGSGGGGSGGGGSGGGGSEVQLVESGGGLVQAGGSLRLSCAASGRAFSTLAMGWFRQAPGKEREFVAAISRNGNNSATGDSLKGRFTISRDSTKSTVFLQMNTLKPEDTAVYYCAAISTPSASHPYVRKESYRYWGQGTQVTVSSAAADYKDHDGDYKDHDIDYKDDDDKGAAHHHHHHKAAGGGGG
notes: Screened as crude periplasmic extract; also called F103275B05(N93R)-50GS-F0103478E09 bivalent ISVD
Consider B3, for which the MFI with huNav1.7α + β1-β2-β3 [5] worked out at 82800 MFI; with rhNav1.7α + β1-β2-β3 [6] it was 60600 MFI; with huNav157chim14-β1-β2-β3, 1230 MFI; with huNav157chim14 it was 799 MFI; with rhNav1.7α + β1-β2-β3 [7], 139000 MFI; in the test with huNav1.7α + β1-β2-β3 [8], 137000 MFI.

B4: F0103492E09 (VHH)
VHH: EVQLVESGGGLVQAGGSLRLSCAASKSILSFAYMRWYRQAPGKQREFVASIAIGGATSYTDSVKGRFTISRDNAKNTVYLQMNSLKPEDTAVYYCSAPAGQYRGQGTLVTVSS
notes: Purified monovalent protein
Turning to B4, the binding result with Navβ3 and with huNav1.7α was “no binding” in each case.

B5: F0103240B04 (VHH)
VHH: EVQLVESGGGLVQAGGSLRLSCAASGGTGRRYAMGWFRQAPGKEREIVAAIRWSAMTYYADDGKGRFTISRDNAKNTVYLQMNSLKPEDTAIYYCAYTWDYFKYDQVRAYRGWGQGTLVTVSS
notes: Purified monovalent protein; also called anti-Navβ2 ISVD F0103240B04
For the molecule B5, the binding result in the test with Navβ3 is “no binding”.

B6: F010301871 (VHH)
VHH: EVQLVESGGGVVQPGGSLRLSCAATSRAFIRDVFTGWYRRVPGKERELVARIYNGGNTNYADFAKGRFTISRDNAKKMVYLQMNSLRPEDTALYYCLFSGTINTGREYRSGDYWGQGTLVTVSS
notes: also called F0103464B09(L11V, T24A, S68T, T79Y, R81Q, S82aN, N82bS, K83R, G88A, V89L); T24A
Regarding B6, the “EC50 fold change compared to reference” value in test [9] is -2 fold.

B7: F010301876 (VHH)
VHH: EVQLVESGGGVVQPGGSLRLSCATTSRAFIRDVFTGWYRRVPGKERELVARIYNGGNTNYADFVKGRFTISRDNAKKMVYLQMNSLRPEDTALYYCLFSGTINTGREYRSGDYWGQGTLVTVSS
notes: also called F0103464B09(L11V, A63V, S68T, T79Y, R81Q, S82aN, N82bS, K83R, G88A, V89L); A63V
Regarding B7, the “EC50 fold change compared to reference” value in test [9] was -2 fold.

B8: F010301872 (VHH)
VHH: EVQLVESGGGVVQPGGSLRLSCATSSRAFIRDVFTGWYRRVPGKERELVARIYNGGNTNYADFAKGRFTISRDNAKKMVYLQMNSLRPEDTALYYCLFSGTINTGREYRSGDYWGQGTLVTVSS
notes: also called F0103464B09(L11V, T25S, S68T, T79Y, R81Q, S82aN, N82bS, K83R, G88A, V89L); T25S
As for B8, the “EC50 fold change compared to reference” value in test [9] is -2 fold.

B9: F010301873 (VHH)
VHH: EVQLVESGGGVVQPGGSLRLSCATTSRAFIRDVFTGWYRQVPGKERELVARIYNGGNTNYADFAKGRFTISRDNAKKMVYLQMNSLRPEDTALYYCLFSGTINTGREYRSGDYWGQGTLVTVSS
notes: also called F0103464B09(L11V, R39Q, S68T, T79Y, R81Q, S82aN, N82bS, K83R, G88A, V89L); R39Q
Regarding B9, the “EC50 fold change compared to reference” value in test [9] is -4 fold.

B10: F0103PMP492E09 (bispecific antibody)
chain: EVQLVESGGGLVQPGGSLRLSCAASGSIFNINSMAWYRRAPGKQRELVASSTNGGSTNYADSVKGRFTISRDNAKRVYLQMNSLTPEDTAVYYCRALLQPSIYDISRTYWGQGTLVTVSSGGGGSGGGGSGGGGSGGGGSGGGGSGGGGSGGGGSGGGGSGGGGSGGGGSEVQLVESGGGLVQAGGSLRLSCAASKSILSFAYMRWYRQAPGKQREFVASIAIGGATSYTDSVKGRFTISRDNAKNTVYLQMNSLKPEDTAVYYCSAPAGQYRGQGTLVTVSSAAADYKDHDGDYKDHDIDYKDDDDKGAAHHHHHHKAAGGGGG
notes: crude periplasmic extract; also called F103275B05(N93R)-50GS-F0103492E09 bivalent ISVD
Regarding B10, the MFI amounted to 40200 MFI with huNav1.7α + β1-β2-β3 [5]; 25200 MFI with rhNav1.7α + β1-β2-β3 [6]; 133000 MFI with huNav157chim14-β1-β2-β3; 58400 MFI with huNav157chim14; 111000 MFI with rhNav1.7α + β1-β2-β3 [7]; 104000 MFI in the test with huNav1.7α + β1-β2-β3 [8].

B11: F0103500E03 (VHH)
VHH: EVQLVESGGGLVQPGGSLRLSCAASGRTFSRYQMGWFRQAPGKEREFVAYISWSGSTRYVDSVKGRFTISRDNAKNTVYLQMNSLKPEDTAVYHCAAGTAGIISSRPETYDSWGQGTLVTVSS
notes: Purified monovalent protein
As to B11, the binding result in the test with Navβ3 and with huNav1.7α was “no binding” in each case.

B12: F0103495F09 (VHH)
VHH: EVQLVESGGGLVQAGSSLSLSCAASGRALSTYAMGWFRQAPGKEREFVARISRSGITTYYTDSVKGRFTISRDRAKDTVYLQMNSLKPEDTAIYLCAADASTNPAGYYLRNRYDYWGQGTLVTVSS
notes: also called F103495F09
As to B12, in the test with huNav1.7α, the binding result is listed as “no binding”.

B13: F0103478E09 (VHH)
VHH: EVQLVESGGGLVQAGGSLRLSCAASGRAFSTLAMGWFRQAPGKEREFVAAISRNGNNSATGDSLKGRFTISRDSTKSTVFLQMNTLKPEDTAVYYCAAISTPSASHPYVRKESYRYWGQGTLVTVSS
notes: Purified monovalent protein
On to B13, for which the binding result with Navβ3 and in the test with huNav1.7α was “no binding” each time.
